Measurements reported in the DeepSol protein solubility set.

Assay: soluble on expression in E. coli; label from the status in PepcDB or PDB records

| Sequence | soluble on expression in E. coli |
| --- | --- |
| MKKHTLALCLAAILAPAAHAAEIKVEDLTWKAITFGQSTDMNFGSTILPEKVGVNQVTVNGEAVAAGKLASTFTIESRGGKLANSHEGLTFYYTELPTDVNFTLSADVVLEQLGPETGATPNRQEGAGLMVRDILGAERLVPQPEGHEEFPSASNMVMNLMRSHTRANDGMTNINASFREGVYQPWGTPGNRLSRVDYVEGVPYGTAETYRMTLTRTNDGFKVSYRNGEKFVEQAVKGANANIVEMQNSDSQYVGFFASRNAKMTVSNVDLQLAAADTVDAPKYAAKQGELVFQIASSPRSATKEYPVQARANYSGEFEVLHNDKVVAKQTVTAGELFSQWLTLDSGANQMEVRFTAIDGPNKETQAHRYSVDVVSLPDPMTL | not soluble |
| MKFVAVIRQVPDGESKLRIQGDRVDLSGATMILDQMDEYAVEEAIRLKERHGGEAVVVGFGPERTEEAIRTALAMGMDRGVHVVYEGFADPVAVAEALVEVLKEEAPTLVLTGGQQADWDSQALGGALTEALGVPVVAWTTALELEGDTAKAKHDLDEGAEWVRVRLPAVFTTQQGLNEPRYPTLPGIMKAKKKEIRKVQASLTPKVTLISEEIQEKSRLGKILDGKDPVAAAEELVRLLHEEAKVI | soluble |
| VIEPARGLGDGNIERKIRGLLDSWMTWNHSFQGSCMFLDAWNDAADKNCPLQAALRKAIDTWLSYLEIQIAKGKENQEFISDLDTRQATFDLYGQYLSAHVFYSIKGEEESLRLFWQGIDNLLARWRG | not soluble |
| MSLNYTTQMDAAKKGIITKEMQVVSEKEGINIETLMNLMAEGKIVIPANKNHKSISAEGVGQGLRTKINVNLGISKDCANIELELEKVKKAIDMNAESIMDLSNYGKTYDFRKRLVEVSTAMIGTVPMYDVVGFYDKELKDITVDEFFEVVEKHAKDGVDFVTIHAGLNRETIETFRRNKRLTNIVSRGGSLLFAWMELNNRENPFYEYFDRLLDICEKYDLTLSLGDACRPGSIADATDAVQIKELITLGELTKRAWERNVQVIIEGPGHMAMNEIEANVLLEKKLCHGAPFYVLGPIVTDIAPGYDHITSAIGGAMAASYGADFLCYVTPAEHLRLPNLEDVREGIVATKIAAHAADIAKGISGARDIDNKMSDARKRLDWDEMFSLAIDSEKAIRYRKESTPEHKDSCTMCGKMCSIRNMNKILEGKDINLLREGHHHHHH | soluble |
| MNALARRAAGLLLGTLCLPLAAFAADVQPTHEFILDNGLKVVVREDHRAPVVVSQIWYKVGSSYETPGQTGLSHALEHMMFKGSAKVGPGEASRILRDLGADENAFTSDDYTAYYQVLARDRLPVALELEADRLASLRLPADEFSREIEVIKEERRLRTDDQPNAKAFELFRAMAYPASGYHTPTIGWMADLERMKVEELRHWYESWYAPNNATLVVVGDVTADEVKGLAQKYFGNIPKRA | not soluble |
| MGSDKIHHHHHHVPRVARIKSKSGIYHIIMRGINRQIVFEENEDCVKFIQTLQKIQAICKYRLYAYCLMGNHLHLLLMEGTEPLGNVMRRICSSYVLWYNKKYDRVGYLFQDRFKSEPVEDDGYFLTVLRYIFQNPVKAGIVTKIKDYKWTNYTDYIEGSNKTDTDFVLDFFNTNRERAIRSFIEYINKTNDDKCLDIPGKRQLTDEDAKKIIKDHCHIYNALDLYKFDVNKRNQYLKELKEGYGLSIRQIERLTGIGRGIIQRA | not soluble |
| GPGSMNGEFPVLVSHHKLLMLPTVGVARYDSGNAGIIGEQTHNFHVIPEIELIVVRVHGKMTEYQHNHLLLTSVLQLHAKPLHLFLTNASINIQHIFAMTITMLHAIRFCPSGSTGPCCKHRQIRPIEHNEKEHAALTYLKTIVTGWHPQQTINMIMVLFAQPQEIVVPQ | not soluble |
| MESLTLQPIARVDGAINLPGSKSVSNRALLLAALACGKTALTNLLDSDDVRHMLNALSALGINYTLSADRTRCDITGNGGALRAPGALELFLGNAGTAMRPLAAALCLGQNEIVLTGEPRMKERPIGHLVDSLRQGGANIDYLEQENYPPLRLRGGFTGGDIEVDGSVSSQFLTALLMTAPLAPKDTIIRVKGELVSKPYIDITLNLMKTFGVEIANHHYQQFVVKGGQQYHSPGRYLVEGDASSASYFLAAGAIKGGTVKVTGIGRKSMQGDIRFADVLEKMGATITWGDDFIACTRGELHAIDMDMNHIPDAAMTIATTALFAKGTTTLRNIYNWRVKETDRLFAMATELRKVGAEVEEGHDYIRITPPAKLQHADIGTYNDHRMAMCFSLVALSDTPVTILDPKCTAKTFPDYFEQLARMSTPA | not soluble |
| MSLLIETTMTFLCPLCEHPLTLNQNTYACINRHQFDVAKEGYVNLMPVQHKRSKDPGDNKEMTQARRRFLHTGHYAPMREKVATLCQTYLTDRQQTLLDIGCGEGYYTDFFAKALRQQDSEAQIFGLDISKIAIRYAAKRYPECQFAVASSHRLPFANQSLDGVIRIYAPCKDTELERCIKIGGIVITVTPAARHLYQFKQGIYDQVRLHEEQPETLSGFELVEECKLHYPMALNGSEAADLLQMTPFAWRASEDFKHRVSQSDTFECEADFMLRVYRRKEGHHHHHH | soluble |
| YASQSAGKEYYKHIEKIIVDNDVYEKSLEGERTFDINYQGIKINADLIKDGKHELTIVNKKDGDILITFIKKG | not soluble |
| MLSAFTPRPLKRLFTANQCWTSFLDAGGLRDIEVEAVTKMLACGTRILGVKEYICDKPECPHVRYVTNSCGSRACPSCGKKATDLWIATQLNRLPDCDWVHLVFTLPDTQWPVFESNRWLLNDVCRLAVENLLYAARKRGQEPGIFCAIHTYGRRLNWHPHVHVSVTCGGLNKHGQWKKLSFLKDAMRSRWMWNMRQRLLKAWSEGLAMPESLSHITTESQRRSLVLKAGGKYWHVYMSKKTAGGRNTARYLGRYLKKPPIAASRLAHYNGGGA | not soluble |
| GSTPITGPHIAYTEAVSDTQIMLKWTYIPSSNNNTPIQGFYIYYRPTDSDNDSDYKRDVVEGSKQWHMIGHLQPETSYDIKMQCFNEGGESEFSNVMICETK | soluble |
| MTTCGEFLVKQLEAWGVETVFGIPGVHTVELYRGLPGSRIRHVTPRHEQGAGFMADGYARVTGKPGVCFIITGPGMTNILTAMAQAYADSIPMLVISSVNERARLAHGNGYLHELPNQRNLVGNVCAFSHTLMSAEELPAVLARAFAVFDSERPRPVHIELPLDVITAPAEHLALRPRTVTSRPAPALAPLREAAARLRNAKKPLLLLGGGCVEAAAEARALAAALDAPTALTINAKGLLPADHPLLLGSNQSCVPVRELATEADVVLAIGTELGETDYDVVFDGGFALDGELIRIDIDPQQLMRNYTPSLAIHSDARLAMRVLLAELPGGEASPDSPGARRAAAVRQRLAEDFAGWSHYRQLFAAILAEWPDARFVGDSTQTVYSGNHLVDLDEPRRWFNASTGYGTLGYGLPAAIGAKLGEPGRPVVSLMGDGGLQFTLPELASAVEAKVGIVVLLWNNHGYGEIKRYMERREITPLGVDIYTPDFLAIARGFGCAAERARDLEHLRELLRGAPADRPLIVEVLQAAPFHP | not soluble |
| MGSDKIHHHHHHMLSHETIWNAIDRLAEQYHLTPSGLARKAGLDPTSFNKSKRVGPDGRMRWPSTESIAKVLEATGARIDQFVTLISNDNHQVNAVHETLPDGNFPPQIGTIPLLGLAQAGSGGFFDDGGFPAGQGWDLVDLPTSAKPGVYALEIQGDSMKPLYRDGDILIVEPGAPVRRGDRVVVKTCDGEVMAKVLGRQTARTVDLISINPDHPNRVLDMQDVEWIARIIWVSQ | not soluble |
| REGKASTVNPGNGNVPDAEDLQALFDVIYEVMPEPTVNVDGPLQAHVTNLDSSSFLGRIGLIRVHSGSLKKGQQVAWIHYDEEGNQHTKTAKIAELLRTVGVTRVPADEVVAGDIAAISGIDSIMIGDTLADLEHPVALPRITVDEPAISMTIGVNTSPLAGRGGGDKLTARVVKARLEQELIGNVSLRVLPTERPDAWEVQGRGEMALSVLVETMRREGFELTVGKPQVVTQTVDGKLFEPYEHMVIDIPSEYQGNVTQLMAARKGQMLSMDNISDEWVRMEYKVPARGLISFRTMFMTETRGTGIANSYSEGLDEWAGEIKGRATGSLVADRSGQITAYALQQLADRGNFFVEPGTEAYEGMVVGANNRDEDMDVNITREKKLTNMRSATADATVTLAKARSLSLDEAMEFCGQDECVEVTPDVLRVRKVILNATERGRARAREKARNK | not soluble |
| MAHHHHHHMPGFADSFNGVAVGSSTMLTRGTHSSQDAVHHTDTATAAEWRALYGASADMMNSTAHTYRACGAGVSYMTPIFHLTANDVTILSMEHNNHCRLLGIATSKNQIFVTWTQVMPVIENMGMLRAPDDDLFGGEQATPVDERLLEWDPATMSILIDELPYTCTELSWAPWQQGIYLAGLCPGHGIRLYRYSHGNWALDDCIRSTESVSCSISTNFTVACACRRGRVELWVRGSTASGTAVAPGPSPSLSAGDSTATNGGDGVSHTSWVLCRVLTLPFSEDDNGGSRTHDGDRSGGAGSPSAVAARHRRRDILGVAWVESGALLAAGDQGGSVYVVAATQDSTRLGEVVYHQLPSALCGPCKQVAWSPSSGRSFLCLAMVFTTCVRLVLFRRPSFMNAAGLPHAARSVGGSGGGRMGWAHSSVAPIAASSLEVLAMTQVPCEEVAKLSWNNTGTRFVTAHLDSSVNIWAVDFRYRHPVKGDGANATSGREEANTLHSVDSARMDRQVETSVFAAAGEERLGIVVSVQCTSAVHPYHAVSK | not soluble |
| MANDDLQQRLDKGMYGTPLVNPEEQHKYMGTFRERCRLSMTVAEMKDAQNQKHLLEELAKHPEVTVLLNGEISSDLQSTYIKLLNQHGANFKIVNNFVENNPDSLGLLLAEKHAVDEPVIDVTEKYPQATETPKEEPTAKKSFWQKLFHS | not soluble |
| MAQHVKFHQYFFQWMQLYKLDAVRPVTYRKYEMSHRQLVTLAPDLKMADLSRLTYQQLLNDYAETHERQTTMDFHRHLKGSLIDALEEGFIDRDPTRKAIIKGIKHRQHKLEHHHHHH | soluble |
| MGSDKIHHHHHHMIRISNKIKTLLAMLSFVQVTSGCDATVQDIIIDTDPGVEIGNNDYYTWCKETLSVIDKDLKISGTHSYYENQDRSQVSFIWGNIFLLYTYTEGISLSKSEWSDALMNCFLNFDNYWHPNYKGIAGYATLPTSAEKVPDRFYDENGWTAIGLCDAYLATQNNSYLEKAKGALAFSLSGEDNVLGGGIYFQETFVSLPVQKNTICSAVTMLSCMKLYEITQDRQYLDAAIRINDWTVENLLDKSDNLLWDAKMVADGSVNTQKWSYNAGFMIRSWLKMYQATKDEKYLSQAKATLASSEAKWYNSINGALNDPGYFAFSIIDSWFDMYDTDKNTVWLTKAFHAINFIHNKLRDGNGRYPEHWGTPTTSNLEKYDLRFSTVAAYMYMRAANYKRILND | not soluble |
| MGSDKIHHHHHHMANPLTGYNFAYLDEQTKRMIRRAILKAVAIPGYQVPFGGREMPMPYGWGTGGIQLTASVIGENDVLKVIDQGADDTTNAVSIRQFFKRVTGVATTERTEDATLIQTRHRIPETPLVEDQILIYQVPIPEPLRFIEPRETETRTMHALEEYGVMQVKLYEDIARFGHIATTYAYPVKVNGRYVMDPSPIPKFDNPKMHMMPALQLFGAGREKRIYAVPPYTPVESLDFDDHPFTVQEWDEPCAICGSRHSYLDEVVLDDSGQRMFVCSDTDYCRQQSEGQKK | not soluble |
| MAAAAKPNNLSLVVHGPGDLRLENYPIPEPGPNEVLLRMHSVGICGSDVHYWEYGRIGNFIVKKPMVLGHEASGTVEKVGSSVKHLKPGDRVAIEPGAPRENDEFCKMGRYNLSPSIFFCATPPDDGNLCRFYKHNAAFCYKLPDNVTFEEGALIEPLSVGIHACRRGGVTLGHKVLVCGAGPIGMVTLLVAKAMGAAQVVVTDLSATRLSKAKEIGADLVLQISKESPQEIARKVEGQLGCKPEVTIECTGAEASIQAGIYATRSGGTLVLVGLGSEMTTVPLLHAAIREVDIKGVFRYCNTWPVAISMLASKSVNVKPLVTHRFPLEKALEAFETFKKGLGLKIMLKCDPSDQNP | not soluble |
